Experimental findings from PMC4500839 (Nature communications, 2015) are described below.

For the assay, the target named is gp120BaL (HIV-1 group M subtype B, isolate BaL …, UniProt Q6TAP7, strain). The experiment in a line: ELISA. (In general: An ELISA detects its analyte on a solid surface through an enzyme-linked reagent.)

B1: PGT128 (antibody, V domains shown)
VH: QPQLQESGPTLVEASETLSLTCAVSGDSTAACNSFWGWVRQPPGKGLEWVGSLSHCASYWNRGWTYHNPSLKSRLTLALDTPKNLVFLKLNSVTAADTATYYCARFGGEVLRYTDWPKPAWVDLWGRGTLVTVSS
VL: QSALTQPPSASGSPGQSITISCTGTSNNFVSWYQQHAGKAPKLVIYDVNKRPSGVPDRFSGSKSGNTASLTVSGLQTDDEAVYYCGSLVGNWDVIFGGGTKLTVL
For B1, the binding result is “binds”.
